# Reference: paper PMC8034648, “Oligomeric complexes formed by Redβ single strand annealing protein in its different DNA bound states”
# T1: Redβ single strand annealing protein (bacteriophage λ, UniProt P03698)
# T1 sequence: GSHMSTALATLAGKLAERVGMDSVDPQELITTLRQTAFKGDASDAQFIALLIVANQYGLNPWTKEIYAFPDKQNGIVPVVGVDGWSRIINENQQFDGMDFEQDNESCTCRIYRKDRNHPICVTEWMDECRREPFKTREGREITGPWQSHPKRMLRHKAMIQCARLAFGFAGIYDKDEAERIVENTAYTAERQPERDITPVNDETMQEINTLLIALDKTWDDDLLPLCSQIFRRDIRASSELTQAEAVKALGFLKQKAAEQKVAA
# B1: 83- (ssDNA)
# DNA: TTGCATATTTAAAACATGTTGAGCTACAGCACCAGATTCAGCAATTAAGCTCTAAGCCATCCGCAAAAATGACCTCTTATCAA
# B2: 83-:83+ (dsDNA)
# DNA 1: B1 DNA
# DNA 2: TTGATAAGAGGTCATTTTTGCGGATGGCTTAGAGCTTAATTGCTGAATCTGGTGCTGTAGCTCAACATGTTTTAAATATGCAA
# B3: 83-:87+ (dsDNA)
# DNA 1: B1 DNA
# DNA 2: TTGATAAGAGGTCATTTTTGCGGATGGCTTAGAGCTTAATTGCTGAATCTGGTGCTGTAGCTCAACATGTTTTAAATATGCAATGAC
# B4: dT38:dA38 (dsDNA)
# DNA 1: TTTTTTTTTTTTTTTTTTTTTTTTTTTTTTTTTTTTTT
# DNA 2: AAAAAAAAAAAAAAAAAAAAAAAAAAAAAAAAAAAAAA
# B5: Cy5 50mer:Cy3 50mer (annealed sequentially or pre-formed) (dsDNA)
# DNA 1: CCATCCGCAAAAATCGAGCTATGCAGGGCGATTCTGCTCTAAGCCATCCG
# DNA 2: GCGGATGGCTTAGAGCAGAATCGCCCTGCATAGCTCGATTTTTGCGGATG
# Key:
# [1] = target: T1, Redβ single strand annealing protein; assay: SEC-MALS; PBS; 653 kDa, n=21.1; EMSA: 10 uM Redβ, 50 uM nt DNA, 37 C, in PBS, or 20 mM Tris-HCl pH 7.5/10 mM NaCl/10 mM MgCl2, or 50 mM ammonium acetate pH 7.0; SEC-MALS: PBS, complexes formed; details: protein: recombinant; tags: N-terminal GSH left after thrombin removal of 6xHis; chain copies: 11
# [2] = target: T1, Redβ single strand annealing protein; assay: SEC-MALS; strands added sequentially, PBS; 591 kDa, n=18.2; EMSA: 10 uM Redβ, 50 uM nt DNA, 37 C, in PBS, or 20 mM Tris-HCl pH 7.5/10 mM NaCl/10 mM MgCl2, or 50 mM ammonium acetate pH 7.0; SEC-MALS: PBS, complexes formed; details: protein: recombinant; tags: N-terminal GSH left after thrombin removal of 6xHis; chain copies: 11; blunt
# [3] = target: T1, Redβ single strand annealing protein; assay: native MS; strands added sequentially, 1 uM Redβ; 22 subunits, one copy of each strand; EMSA: 10 uM Redβ, 50 uM nt DNA, 37 C, in PBS, or 20 mM Tris-HCl pH 7.5/10 mM NaCl/10 mM MgCl2, or 50 mM ammonium acetate pH 7.0; SEC-MALS: PBS, complexes formed; details: protein: recombinant; tags: N-terminal GSH left after thrombin removal of 6xHis; chain copies: 11; 3' overhang 4 nt on strand 2
# [4] = target: T1, Redβ single strand annealing protein; assay: SEC-MALS; strands added sequentially, PBS; 358 kDa, n=11.3; EMSA: 10 uM Redβ, 50 uM nt DNA, 37 C, in PBS, or 20 mM Tris-HCl pH 7.5/10 mM NaCl/10 mM MgCl2, or 50 mM ammonium acetate pH 7.0; SEC-MALS: PBS, complexes formed; details: protein: recombinant; tags: N-terminal GSH left after thrombin removal of 6xHis; chain copies: 11; blunt
# [5] = target: T1, Redβ single strand annealing protein; assay: EMSA; strands added sequentially, either order; EMSA: 10 uM Redβ, 50 uM nt DNA, 37 C, in PBS, or 20 mM Tris-HCl pH 7.5/10 mM NaCl/10 mM MgCl2, or 50 mM ammonium acetate pH 7.0; SEC-MALS: PBS, complexes formed; details: protein: recombinant; tags: N-terminal GSH left after thrombin removal of 6xHis; chain copies: 11; label: 5'-Cy5 on strand 1, 5'-Cy3 on strand 2; 5' overhangs 1 nt (49 bp)
binder,measurement,setting,value
B1,binding result,[1],binds
B2,binding result,[2],binds
B3,binding result,[3],binds
B4,binding result,[4],binds
B5,binding result,[5],binds
